Assay results: the supplement of paper PMC10126150
± gives the standard deviation of the averaged measurements.

System: ATP
Test: switch fluorescence ratio, 500 uM ATP over buffer (Cy3 cluster intensity, sum of 5 cycles each) (fold (ratio)); higher = stronger signal-on switching upon ATP binding; sequences stand for … in TCGTCGGCAGCGTCAGATGTGTATAAGAGACAGTTTTTTTTTTTTTTTTTTTTTTTTT…TC
Details: aptamer strand: ATP DNA aptamer (quencher-CACCTGGGGGAGTATTGCGGAGGAAGG + anchor), 100 nM annealed; ATP concentration: 500 uM
Summary of the method: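 Switching-strand clusters labelled with Cy3 on a modified Illumina MiSeq flow-cell were annealed to 100 nM quencher-labelled ATP aptamer, imaged in selection buffer, and re-imaged after 15 min with 500 uM ATP at 22 °C. This was done over five cycles with NaOH stripping and re-annealing in between. The fluorescence ratio is summed target-cycle over summed buffer-cycle Cy3 intensity per cluster, averaged per switch-domain sequence, excluding clusters outside 100-1000 RFU.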
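Further: ATP exposure 15 min at 22 °C before imaging.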

Sequence	switch fluorescence ratio
TGAGATCCCT	1.03 ± 0.039
GTGGGGTCGA	1.01 ± 0.04
GGTGTGGAGG	1.021 ± 0.0047
GTTTTCGGGC	0.987 ± 0.067
TGCGGTAAAA	1.03 ± 0.063
TAAGCCTTTT	1.038 ± 0.0024
AGGGAAATCT	1.034 ± 0.01
TTTAGGTTCG	0.972 ± 0.028
TTTTAAAGA	0.982 ± 0.026
ACGTGAGGTT	1.01 ± 0.059
GCAGGGGAGT	1.17 ± 0.29
CAAAGGGATA	1 ± 0.054
GTTGTTGAGT	0.997 ± 0.0024
TTAATTTGCA	1.01 ± 0.04
TATGTGTGTT	0.9873 ± 0.0062
TAGGGAAACT	1.21 ± 0.26
ACTCGGGCTA	1.59 ± 0.61
ATGGAAAATG	1.04 ± 0.037
AGGAAAGGCG	1.09 ± 0.015
TTTTGAGAGG	0.983 ± 0.036
ATGAAAGGGA	1.02 ± 0.042
GGGGGTGATG	1 ± 0.035
CCATCATTCA	1 ± 0.028

Sequence	switch fluorescence ratio
TTTATATGTA	1.01 ± 0.022
AAGTCTCTCC	1.06 ± 0.018
CAGGAGTCGG	1.01 ± 0.014
TGGCGAACGG	1.01 ± 0.052
GATTTTTCAA	1 ± 0.021
TCGAGGGGCG	1.06 ± 0.019
GTGGGTGTGT	1.02 ± 0.045
GTGAGGGTTG	0.975 ± 0.03
AGTTGTCCAT	0.9767 ± 0.0079
TACAGGTGTG	1.24 ± 0.044
GGGGTTAGGG	1 ± 0.032
TACATGAAGG	0.995 ± 0.019
CGGCCATCGG	0.9978 ± 0.0049
CGTATAGGTG	1.06 ± 0.077
TCTTTCTGGG	1.03 ± 0.021
CTCCTCAGTG	2.26 ± 0.29
TGGTGGTCGC	0.9778 ± 0.0044
GGGGGAATAT	1.13 ± 0.39
TTTTGGTTAT	1.01 ± 0.03
GTGGGAGGAC	1.078 ± 0.0018
GGAGGTTGGG	0.958 ± 0.013
CATCTGGTGC	1.63 ± 0.19
TTTTGGCTTG	0.9884 ± 0.0012

Sequence	switch fluorescence ratio
TTCTGAGAAT	1.042 ± 0.0044
ACAGTGCATT	1.03 ± 0.025
ATCGGTGTGC	0.981 ± 0.069
CGATGTGCCC	0.983 ± 0.024
AGGTGTAGGC	0.979 ± 0.038
GGTTTGGGCA	1.02 ± 0.013
ACATCGTGTT	0.977 ± 0.033
GGTTGGTTCT	1.02 ± 0.078
TCAGGGACAG	1.02 ± 0.021
GTTATAGCTT	1.018 ± 0.0029
GTATTTATGA	0.974 ± 0.0056
TTGGGGAACC	0.9866 ± 0.009
GGATAGGGGG	0.9963 ± 0.0012
TGGGTATGT	1.03 ± 0.0087
GCAGGAATTT	1 ± 0.038
TAAGCGTCTG	1.013 ± 0.0057
GAGGGGGGTC	1.04 ± 0.064
GCATCTTCAC	1.0378 ± 0.00044
GGGTAGCCTG	0.982 ± 0.02
TGGCGAAGTA	1.01 ± 0.013
TTAGAAAATA	1.12 ± 0.15
TTGGGGGTGA	1 ± 0.042
TTTTTAGCGT	0.995 ± 0.027

Sequence	switch fluorescence ratio
GTGGTAGCCG	1.0015 ± 0.00029
GCGCTGGGCA	1.01 ± 0.035
AGGCGCTTAT	1.33 ± 0.55
ATGTTTTCCT	1.0718 ± 0.00067
AAAAAATGCC	1.07 ± 0.091
GGTACGTTTG	0.993 ± 0.033
CGCGTGGGGG	1.03 ± 0.081
GTAGTTTGCG	0.928 ± 0.12
GGAGTGCAG	0.964 ± 0.025
ATGTAACATG	1 ± 0.027
TGAGGAATTC	1 ± 0.017
TATTAATTC	0.972 ± 0.056
TAGGTGGAAA	0.992 ± 0.042
GGTATAAAGG	0.996 ± 0.014
GTGTTTTGTT	0.986 ± 0.034
TTAGGGGGAT	0.988 ± 0.019
AATCCTAAGG	1.02 ± 0.048
GGCCTATCAC	1.016 ± 0.0078
GGGGTTTCCG	0.9992 ± 0.0093
AGGGGAGACC	0.9775 ± 0.0096
CTTTGCTTTT	0.968 ± 0.023
GTCTGGGGGA	1.03 ± 0.042
CTGTACAAGC	1.15 ± 0.03

Sequence	switch fluorescence ratio
AGTCTAACTC	1.02 ± 0.019
CACCTGTTTT	1.02 ± 0.033
ATTATGGGAG	0.989 ± 0.011
GGGTTGGGTT	1.05 ± 0.18
TGGTGGCTGG	0.989 ± 0.028
TTGTTTGATG	1.01 ± 0.011
TTCCAGGGCA	1.02 ± 0.022
GGTAATGGTA	0.9702 ± 0.0045
GGGAAAATTT	1.07 ± 0.059
ATGTGGATGG	0.976 ± 0.023
GACCTGTTTT	0.987 ± 0.063
TAGGGAGATG	0.996 ± 0.056
CGTCACATAA	1.22 ± 0.016
AAAAACAGCG	1.02 ± 0.053
TGAACTGCTG	1.017 ± 0.0049
TTAACCGGGG	1.13 ± 0.16
GGTGTAGCGG	0.982 ± 0.065
TAACAGAAGA	0.991 ± 0.017
AGTTTGGGC	0.9604 ± 0.0015
AAAGTGTCGT	0.973 ± 0.028
ATGTAGTCGC	1.004 ± 0.0012
ACTACTACTT	1.16 ± 0.019
GCTACGACGG	1.05 ± 0.012

Sequence	switch fluorescence ratio
CGAGCCTTGT	1.01 ± 0.04
GAGTCTTTGG	0.973 ± 0.021
AGGGTATGAT	0.99 ± 0.025
ATGTGGGTAC	1.02 ± 0.026
AATGGTAAAC	1.04 ± 0.018
AAAGAAGGGA	0.981 ± 0.015
AGTACCGTTT	0.968 ± 0.027
CGGGTGGGGG	1.07 ± 0.036
ATAATATAGG	0.99 ± 0.041
GTAATAGGGC	0.983 ± 0.054
TGGACAACTT	0.995 ± 0.025
AGGATTCGGC	1.04 ± 0.059
TTGGTCGGGT	1.02 ± 0.024
CAGTAGTAGT	1.02 ± 0.0097
AAGGTGGGGG	0.991 ± 0.033
ATTATGACGG	0.982 ± 0.047
CTGTGGCTCG	0.9986 ± 0.0057
AATGGCCTA	1.03 ± 0.046
ATATAAAAAA	1.01 ± 0.026
ATTGATCTCC	1.03 ± 0.072
TTTTATCCCC	1.08 ± 0.1
GGAGGGCAAA	1.01 ± 0.025
GAAGGGCTGG	0.972 ± 0.022

Sequence	switch fluorescence ratio
TCTGAGGTGC	1.06 ± 0.046
TTGTGAATAT	1 ± 0.044
TAAGATCTTA	0.997 ± 0.015
ATTGGATGTG	0.981 ± 0.019
TAAGTATGTT	1.002 ± 0.0031
CATCTATTTT	1 ± 0.035
CGATTAGTTA	0.998 ± 0.023
TTTTTATTTT	1.01 ± 0.074
AATAGGTTAG	1.001 ± 0.0075
GGGTCCTAAG	0.975 ± 0.038
TATTTTGTGG	0.984 ± 0.026
GGGGGTGGGT	1 ± 0.021
AGTTGAGTCT	0.981 ± 0.067
CATTTTTGGG	0.98798 ± 0.00089
TCCCTTGGTT	1.05 ± 0.054
AAATAATTTA	0.955 ± 0.038
CCACTCTGGG	0.9984 ± 0.0068
CTAGTTGGTA	0.994 ± 0.027
CCATGGGTGG	1.01 ± 0.011
